Patent US20100168025A1 (TEXAS A AND M UNIVERSITY SYSTEM, published 2010)

Tests used:
[1] = target: T1, recombinant α5β1 integrin (immobilized, ELISA) (UniProt P08648 42-995; P05556 21-728); assay: ELISA, DV on immobilized recombinant α5β1 integrin
T1 construct: also called a5b1 integrin

[2] = target: A5 domain (immobilized acceptor on the IAsys biosensor) (UniProt P08648); assay: optical biosensor (IAsys), A5 immobilized, Kd = koff/kon
[3] = target: A5 domain (immobilized acceptor on the IAsys biosensor) (UniProt P08648); assay: optical biosensor (IAsys), A5 immobilized, free DV 8.0×10^-8 to 4.0×10^-7 M, global fit

T1 sequence (P08648 42-995, chain 1 of 2): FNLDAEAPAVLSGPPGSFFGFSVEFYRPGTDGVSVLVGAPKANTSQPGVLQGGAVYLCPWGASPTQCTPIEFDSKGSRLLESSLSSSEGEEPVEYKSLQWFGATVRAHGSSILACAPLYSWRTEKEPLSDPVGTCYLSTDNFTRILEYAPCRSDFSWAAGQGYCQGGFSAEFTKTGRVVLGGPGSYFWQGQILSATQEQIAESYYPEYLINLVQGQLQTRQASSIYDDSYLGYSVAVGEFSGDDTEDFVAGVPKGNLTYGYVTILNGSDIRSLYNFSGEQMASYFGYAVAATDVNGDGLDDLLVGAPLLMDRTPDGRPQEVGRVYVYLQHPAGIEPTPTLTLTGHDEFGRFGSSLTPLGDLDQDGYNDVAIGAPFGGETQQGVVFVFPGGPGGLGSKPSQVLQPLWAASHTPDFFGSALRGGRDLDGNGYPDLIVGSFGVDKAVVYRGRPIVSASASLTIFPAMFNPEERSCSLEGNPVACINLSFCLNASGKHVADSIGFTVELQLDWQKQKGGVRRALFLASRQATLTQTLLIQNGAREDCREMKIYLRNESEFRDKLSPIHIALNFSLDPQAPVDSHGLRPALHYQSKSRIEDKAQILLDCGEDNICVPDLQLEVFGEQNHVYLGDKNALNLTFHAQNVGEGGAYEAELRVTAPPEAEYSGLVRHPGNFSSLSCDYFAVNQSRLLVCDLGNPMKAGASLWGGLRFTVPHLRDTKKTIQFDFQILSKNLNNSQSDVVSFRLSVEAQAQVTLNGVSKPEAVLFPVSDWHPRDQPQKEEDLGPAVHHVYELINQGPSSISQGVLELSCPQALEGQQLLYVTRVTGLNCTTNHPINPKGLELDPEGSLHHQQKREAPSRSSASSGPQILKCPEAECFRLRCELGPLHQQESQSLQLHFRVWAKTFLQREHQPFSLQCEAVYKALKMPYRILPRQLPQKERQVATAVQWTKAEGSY
T1 sequence (P05556 21-728, chain 2 of 2): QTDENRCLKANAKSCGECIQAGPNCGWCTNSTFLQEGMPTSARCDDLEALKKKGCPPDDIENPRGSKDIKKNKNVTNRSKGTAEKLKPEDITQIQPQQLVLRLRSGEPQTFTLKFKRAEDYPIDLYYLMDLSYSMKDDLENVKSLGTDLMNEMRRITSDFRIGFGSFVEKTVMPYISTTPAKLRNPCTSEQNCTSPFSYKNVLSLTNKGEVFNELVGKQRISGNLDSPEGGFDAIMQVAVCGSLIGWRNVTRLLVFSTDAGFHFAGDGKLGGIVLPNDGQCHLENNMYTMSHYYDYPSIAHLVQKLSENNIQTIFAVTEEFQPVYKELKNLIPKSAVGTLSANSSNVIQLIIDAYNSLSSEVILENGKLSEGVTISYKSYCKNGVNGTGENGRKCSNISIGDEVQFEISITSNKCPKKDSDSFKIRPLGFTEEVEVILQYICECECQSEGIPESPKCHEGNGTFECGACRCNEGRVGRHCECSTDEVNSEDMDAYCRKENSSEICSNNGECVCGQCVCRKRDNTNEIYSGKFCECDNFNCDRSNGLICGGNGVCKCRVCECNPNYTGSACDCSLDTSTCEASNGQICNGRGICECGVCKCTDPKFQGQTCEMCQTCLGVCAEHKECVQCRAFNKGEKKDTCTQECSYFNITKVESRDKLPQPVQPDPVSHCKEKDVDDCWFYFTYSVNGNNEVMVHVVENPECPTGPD

B1: perlecan Domain V (recombinant, C-terminal 6×His tag) (ligand)
chain: EIKITFRPDSADGMLLYNGQKRVPGSPTNLANRQPDFISFGLVGGRPEFRFDAGSGMATIRHPTPLALGHFHTVTLLRSLTQGSLIVGDLAPVNGTSQGKFQGLDLNEELYLGGYPDYGAIPKAGLSSGFIGCVRELRIQGEEIVFHDLNLTAHGISHCPTCRDRPCQNGGQCHDSESSSYVCVCPAGFTGSRCEHSQALHCHPEACGPDATCVNRPDGRGYTCRCHLGRSGLRCEEGVTVTTPSLSGAGSYLALPALTNTHHELRLDVEFKPLAPDGVLLFSGGKSGPVEDFVSLAMVGGHLEFRYELGSGLAVLRSAEPLALGRWHRVSAERLNKDGSLRVNGGRPVLRSSPGKSQGLNLHTLLYLGGVEPSVPLSPATNMSAHFRGCVGEVSVNGKRLDLTYSFLGSQGIGQCYDSSPCERQPCQHGATCMPAGEYEFQCLCRDGFKGDLCEHEENPCQLREPCLHGGTCQGTRCLCLPGFSGPRCQQGSGHGIAESDWHLEGSGGNDAPGQYGAYFHDDGFLAFPGHVFSRSLPEVPETIELEVRTSTASGLLLWQGVEVGEAGQGKDFISLGLQDGHLVFRYQLGSGEARLVSEDPINDGEWHRVTALREGRRGSIQVDGEELVSGRSPGPNVAVNAKGSVYIGGAPDVATLTGGRFSSGITGCVKNLVLHSARPGAPPPQPLDLQHRAQAGANTRPCPSHHHHHH
notes: domain: domain V; Secreted from transfected 293FT cells and purified on Ni beads; also called DV; endorepellin
Q: Which results are given for B1?
A: Kd [1]: ~30 nM; Kd [2]: 160 nM; koff [3]: 0.72 s⁻¹; kon [3]: 3.8e+06 M⁻¹ s⁻¹
